# System: Arabidopsis thaliana T1 plants
# Experiment: Mesotrione tolerance of transgenic Arabidopsis thaliana T1 plants (spray, bleached leaf area grade, damage score)
# Type: in vivo
# Parameters: Scores: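 damage score 0-100 computed as Σ(N×S)/(T×M)×100 over grades 0-3 with higher meaning more damage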
# Settings: Arabidopsis thaliana T1 plants; for Grade 0 (classification and statistics of the grade of pesticide damage; number of plants) / Grade 1 (classification and statistics of the grade of pesticide damage; number of plants) / Grade 2 (classification and statistics of the grade of pesticide damage; number of plants) / Grade 3 (classification and statistics of the grade of pesticide damage; number of plants): 16 plants
# From the text: T1 transformants were initially selected from the untransformed seeds using a glufosinate selection scheme. The Arabidopsis thaliana T1 plants (AsHPPD-02) into which the AsHPPD-02 nucleotide sequence was introduced, the Arabidopsis thaliana T1 plants (AsHPPDm-F372A-02) into which the AsHPPDm-F372A-02 nucleotide sequence was introduced, the Arabidopsis thaliana T1 plants (AsHPPDm-F383W-02) into which the AsHPPDm-F383W-02 nucleotide sequence was introduced, the Arabidopsis thaliana T1 plants (AsHPPDm-F372A-F383W-02) into which the AsHPPDm-F372A-F383W-02 nucleotide sequence was introduced, the Arabidopsis thaliana T1 plants (DBN11726N) into which the control recombinant expression vector DBN11726N was introduced, and the wild-type Arabidopsis thaliana plants (CK) (18 days after sowing) were sprayed respectively with topramezone at three concentrations (100 g ai/ha (four-fold field concentration, 4×), 200 g ai/ha (eight-fold field concentration, 8×), and 0 g ai/ha (water, 0×)), isoxaflutole at three concentrations (140 g ai/ha (two-fold field concentration, 2×), 280 g ai/ha (four-fold field concentration, 4×), and 0 g ai/ha (water, 0×)), and mesotrione at three concentrations (210 g ai/ha (two-fold field concentration, […]), 420 g ai/ha (four-fold field concentration, 4×), and 0 g ai/ha (water, 0×)), to determine the tolerance of Arabidopsis thaliana to the herbicides. The degree of damage caused by the herbicide was measured for each plant according to the proportion of bleached leaf area (the proportion of bleached leaf area=bleached leaf area/total leaf area×100%) 7 days after spraying (7 DAT): the case where there is basically no bleached phenotype is defined as grade 0, the case where the proportion of bleached leaf area is less than 50% is defined as grade 1, the case where the proportion of bleached leaf area is more than 50% is defined as grade 2, and the case where the proportion of bleached leaf area is 100% grade is defined as grade 3.
# According to the method as described above in point 6 of Example 1, the aforementioned Arabidopsis thaliana T1 plants and wild-type Arabidopsis thaliana plants (CK) (18 days after sowing) were sprayed respectively with topramezone at three concentrations (25 g ai/ha (one-fold field concentration, 1×). 100 g ai/ha (four-fold field concentration, 4×), and 0 g ai/ha (water, 0×)), isoxaflutole at three concentrations (35 g ai/ha (half-fold field concentration, 0.5×). 70 g ai/ha (one-fold field concentration, 1×), and 0 g ai/ha (water, 0×)), and mesotrione at three concentrations (52.5 g ai/ha (half-fold field concentration, 0.5×), 105 g ai/ha (one-fold field concentration, 1×), and 0 g ai/ha (water, 0×)) to detect the tolerance of Arabidopsis thaliana to the herbicides.
# According to the method as described above in point 6 of Example 1, the aforementioned Arabidopsis thaliana T1 plants and wild-type Arabidopsis thaliana plants (CK) (18 days after sowing) were sprayed with topramezone at three different concentrations (i.e., 100 g ai/ha (four-fold field concentration, 4×), 200 g ai/ha (eight-fold field concentration, 8×) and 0 g ai/ha (water, 0×)), isoxaflutole at three different concentrations (i.e., 140 g ai/ha (two-fold field concentration, 2×), 280 g ai/ha (four-fold field concentration, 4×) and 0 g ai/ha (water, 0×)), and mesotrione at three different concentrations (i.e., 210 g ai/ha (two-fold field concentration, 2×), 420 g ai/ha (four-fold field concentration, 4×) and 0 g ai/ha (water, 0×)) respectively to detect the herbicide tolerance of Arabidopsis thaliana. […]
Molecule,Resistance evaluation (mesotrione 52.5 g ai/ha),Scores (mesotrione 52.5 g ai/ha),Grade 0 (classification and statistics of the grade of pesticide damage; number of plants) (mesotrione 52.5 g ai/ha),Grade 1 (classification and statistics of the grade of pesticide damage; number of plants) (mesotrione 52.5 g ai/ha),Grade 2 (classification and statistics of the grade of pesticide damage; number of plants) (mesotrione 52.5 g ai/ha),Grade 3 (classification and statistics of the grade of pesticide damage; number of plants) (mesotrione 52.5 g ai/ha),Resistance evaluation (mesotrione 105 g ai/ha),Scores (mesotrione 105 g ai/ha),Grade 0 (classification and statistics of the grade of pesticide damage; number of plants) (mesotrione 105 g ai/ha),Grade 1 (classification and statistics of the grade of pesticide damage; number of plants) (mesotrione 105 g ai/ha),Grade 2 (classification and statistics of the grade of pesticide damage; number of plants) (mesotrione 105 g ai/ha),Grade 3 (classification and statistics of the grade of pesticide damage; number of plants) (mesotrione 105 g ai/ha)
"PfHPPD-02: nucleotide sequence encoding wild-type Pseudomonas fluorescens HPPD; vector DBN11770 (nucleic acid, PfHPPD-02 Nucleotide Sequence, vector DBN11770) DNA: ATGGCCGATTTGTACGAGAACCCAATGGGACTCATGGGTTTCGAGTTCATTGAGTTCGCTTCCCCCACCCCAGGTACTTTGGAGCCTATTTTCGAGATCATGGGCTTCACTAAGGTTGCCACACACAGGTCTAAGAATGTGCATCTCTACCGCCAAGGAGAGATTAACCTGATCCTTAACAATGAGCCTAATAGCATCGCCTCATACTTCGCTGCTGAGCATGGTCCATCTGTTTGCGGCATGGCTTTCAGAGTGAAGGATTCACAAAAGGCCTACAACAGGGCTTTGGAGCTCGGCGCCCAGCCCATTCATATCGACACCGGACCTATGGAGCTGAATCTTCCTGCCATTAAGGGCATCGGCGGAGCTCCATTGTACCTCATTGATCGCTTCGGCGAGGGCTCCTCTATCTACGATATCGACTTCGTGTACCTGGAGGGCGTTGAGAGAAACCCTGTGGGAGCTGGTCTGAAGGTTATCGACCACCTTACTCATAATGTTTACAGAGGAAGGATGGTGTACTGGGCCAACTTCTACGAGAAGCTGTTCAATTTCCGCGAGGCTAGATACTTCGATATTAAGGGCGAGTACACAGGACTTACCTCCAAGGCCATGTCTGCTCCCGACGGTATGATTAGGATCCCATTGAACGAGGAGAGCTCAAAGGGCGCCGGACAGATTGAGGAGTTCCTCATGCAATTCAATGGTGAAGGCATCCAGCACGTTGCTTTCCTGACAGATGACCTTGTGAAGACCTGGGATGCCCTCAAGAAGATTGGCATGAGGTTCATGACCGCTCCACCTGACACTTACTACGAGATGTTGGAGGGACGCCTCCCTGATCATGGCGAGCCCGTTGACCAGCTGCAAGCTAGAGGAATCCTCCTGGATGGTTCCTCTGTGGAGGGCGACAAGAGGCTTTTGCTCCAAATTTTCAGCGAGACTCTTATGGGACCCGTGTTCTTCGAGTTCATCCAGAGGAAGGGCGATGACGGATTCGGCGAGGGCAACTTCAAGGCCCTGTTCGAGTCTATTGAGAGAGATCAGGTGAGGCGCGGCGTTCTTACAGCTGACTGA",Non-resistant,100,0,0,0,16,Non-resistant,100,0,0,0,16
"PfHPPDm-F372A-F383W-02: nucleotide sequence encoding Pseudomonas fluorescens HPPD with F372A+F383W; vector DBN11773 (nucleic acid, PfHPPDm-F372A-F383W-02 Nucleotide Sequence, vector DBN11773) DNA: ATGGCCGATTTGTACGAGAACCCAATGGGACTCATGGGTTTCGAGTTCATTGAGTTCGCTTCCCCCACCCCAGGTACTTTGGAGCCTATTTTCGAGATCATGGGCTTCACTAAGGTTGCCACACACAGGTCTAAGAATGTGCATCTCTACCGCCAAGGAGAGATTAACCTGATCCTTAACAATGAGCCTAATAGCATCGCCTCATACTTCGCTGCTGAGCATGGTCCATCTGTTTGCGGCATGGCTTTCAGAGTGAAGGATTCACAAAAGGCCTACAACAGGGCTTTGGAGCTCGGCGCCCAGCCCATTCATATCGACACCGGACCTATGGAGCTGAATCTTCCTGCCATTAAGGGCATCGGCGGAGCTCCATTGTACCTCATTGATCGCTTCGGCGAGGGCTCCTCTATCTACGATATCGACTTCGTGTACCTGGAGGGCGTTGAGAGAAACCCTGTGGGAGCTGGTCTGAAGGTTATCGACCACCTTACTCATAATGTTTACAGAGGAAGGATGGTGTACTGGGCCAACTTCTACGAGAAGCTGTTCAATTTCCGCGAGGCTAGATACTTCGATATTAAGGGCGAGTACACAGGACTTACCTCCAAGGCCATGTCTGCTCCCGACGGTATGATTAGGATCCCATTGAACGAGGAGAGCTCAAAGGGCGCCGGACAGATTGAGGAGTTCCTCATGCAATTCAATGGTGAAGGCATCCAGCACGTTGCTTTCCTGACAGATGACCTTGTGAAGACCTGGGATGCCCTCAAGAAGATTGGCATGAGGTTCATGACCGCTCCACCTGACACTTACTACGAGATGTTGGAGGGACGCCTCCCTGATCATGGCGAGCCCGTTGACCAGCTGCAAGCTAGAGGAATCCTCCTGGATGGTTCCTCTGTGGAGGGCGACAAGAGGCTTTTGCTCCAAATTGCTAGCGAGACTCTTATGGGACCCGTGTGGTTCGAGTTCATCCAGAGGAAGGGCGATGACGGATTCGGCGAGGGCAACTTCAAGGCCCTGTTCGAGTCTATTGAGAGAGATCAGGTGAGGCGCGGCGTTCTTACAGCTGACTGA",Moderately,21,7,8,1,0,Moderately,33,5,6,5,0
"PfHPPDm-F372A-02: nucleotide sequence encoding Pseudomonas fluorescens HPPD with F372A; vector DBN11771 (nucleic acid, PfHPPDm-F372A-02 Nucleotide Sequence, vector DBN11771) DNA: ATGGCCGATTTGTACGAGAACCCAATGGGACTCATGGGTTTCGAGTTCATTGAGTTCGCTTCCCCCACCCCAGGTACTTTGGAGCCTATTTTCGAGATCATGGGCTTCACTAAGGTTGCCACACACAGGTCTAAGAATGTGCATCTCTACCGCCAAGGAGAGATTAACCTGATCCTTAACAATGAGCCTAATAGCATCGCCTCATACTTCGCTGCTGAGCATGGTCCATCTGTTTGCGGCATGGCTTTCAGAGTGAAGGATTCACAAAAGGCCTACAACAGGGCTTTGGAGCTCGGCGCCCAGCCCATTCATATCGACACCGGACCTATGGAGCTGAATCTTCCTGCCATTAAGGGCATCGGCGGAGCTCCATTGTACCTCATTGATCGCTTCGGCGAGGGCTCCTCTATCTACGATATCGACTTCGTGTACCTGGAGGGCGTTGAGAGAAACCCTGTGGGAGCTGGTCTGAAGGTTATCGACCACCTTACTCATAATGTTTACAGAGGAAGGATGGTGTACTGGGCCAACTTCTACGAGAAGCTGTTCAATTTCCGCGAGGCTAGATACTTCGATATTAAGGGCGAGTACACAGGACTTACCTCCAAGGCCATGTCTGCTCCCGACGGTATGATTAGGATCCCATTGAACGAGGAGAGCTCAAAGGGCGCCGGACAGATTGAGGAGTTCCTCATGCAATTCAATGGTGAAGGCATCCAGCACGTTGCTTTCCTGACAGATGACCTTGTGAAGACCTGGGATGCCCTCAAGAAGATTGGCATGAGGTTCATGACCGCTCCACCTGACACTTACTACGAGATGTTGGAGGGACGCCTCCCTGATCATGGCGAGCCCGTTGACCAGCTGCAAGCTAGAGGAATCCTCCTGGATGGTTCCTCTGTGGAGGGCGACAAGAGGCTTTTGCTCCAAATTGCTAGCGAGACTCTTATGGGACCCGTGTTCTTCGAGTTCATCCAGAGGAAGGGCGATGACGGATTCGGCGAGGGCAACTTCAAGGCCCTGTTCGAGTCTATTGAGAGAGATCAGGTGAGGCGCGGCGTTCTTACAGCTGACTGA",Moderately,31,6,7,1,2,Poorly resistant,58,0,4,12,0

# Source: US20250043302A1, “MUTATED HYDROXYPHENYLPYRUVATE DIOXYGENASE POLYPEPTIDE, AND CODING GENE AND USE THEREOF” (BEIJING DABEINONG BIOTECHNOLOGY CO., LTD., priority 2021, published 2025)
